The target in the experiment is FITC-labeled CD4 (UniProt P01730). The experiment in a line: size exclusion HPLC (Biosil 250); CD4-FITC alone eluted at 2.67 minutes.

In turn, “US4 gp120, purified from CHO cell culture supernatant” yielded a retention time of the complex of 2.17 min.

On to “oligomeric gp140 US4 (o-gp140 US4), purified from CHO cell culture supernatant”, for which the retention time of the complex is 1.9 min.
